Experimental data reported in the supplement of paper PMC11246515.
± gives the standard deviation of the averaged measurements.

Assay: total protein half-life in vivo (active degradation + dilution); higher = more stable protein
[1] = E. coli NCM3722 delta-clpP delta-lon delta-hslV, growth: N-lim chemostat, doubling time 6 h
[2] = E. coli NCM3722 delta-clpP, growth: N-lim chemostat, doubling time 6 h
[3] = E. coli NCM3722 delta-hslV, growth: N-lim chemostat, doubling time 6 h
[4] = E. coli NCM3722 delta-lon, growth: N-lim chemostat, doubling time 6 h
[5] = E. coli NCM3722 delta-smpB, growth: N-lim chemostat, doubling time 6 h
[6] = wild type E. coli NCM3722, growth: C-lim chemostat, doubling time 3 h
[7] = wild type E. coli NCM3722, growth: C-lim chemostat, doubling time 6 h
[8] = wild type E. coli NCM3722, growth: C-lim chemostat, doubling time 12 h
[9] = wild type E. coli NCM3722, growth: N-lim chemostat, doubling time 6 h
[10] = wild type E. coli NCM3722, growth: N-lim chemostat, doubling time 12 h
[11] = wild type E. coli NCM3722, growth: P-lim chemostat, doubling time 6 h
[12] = wild type E. coli NCM3722, growth: P-lim chemostat, doubling time 12 h

Row | Sequence | total protein half-life in vivo [1] [h] | total protein half-life in vivo [2] [h] | total protein half-life in vivo [3] [h] | total protein half-life in vivo [4] [h] | total protein half-life in vivo [5] [h] | total protein half-life in vivo [6] [h] | total protein half-life in vivo [7] [h] | total protein half-life in vivo [8] [h] | total protein half-life in vivo [9] [h] | total protein half-life in vivo [10] [h] | total protein half-life in vivo [11] [h] | total protein half-life in vivo [12] [h]
1 | MHLRHLFSSRLRGSLLLGSLLVVSSFSTQAAEEMLRKAVGKGAYEMAYSQQENALWLATSQSRKLDKGGVVYRLDPVTLEVTQAIHNDLKPFGATINNTTQTLWFGNTVNSAVTAIDAKTGEVKGRLVLDDRKRTEEVRPLQPRELVADDATNTVYISGIGKESVIWVVDGGNIKLKTAIQNTGKMSTGLALDSEGKRLYTTNADGELITIDTADNKILSRKKLLDDGKEHFFINISLDTARQRAFITDSKAAEVLVVDTRNGNILAKVAAPESLAVLFNPARNEAYVTHRQAGKVSVIDAKSYKVVKTFDTPTHPNSLALSADGKTLYVSVKQKSTKQQEATQPDDVIRIAL | 5.6 ± 0.52 | 5.877 ± 0.042 | 5.99 ± 0.71 | 5.44 ± 0.31 | 5.53 ± 0.97 | 3.14 ± 0.065 | 6.05 ± 0.6 | 12.2 ± 1.1 | 5.63 ± 0.093 | 11.5 ± 1.1 | 5.44 ± 0.17 | 11.4 ± 0.18
2 | MHPMLNIAVRAARKAGNLIAKNYETPDAVEASQKGSNDFVTNVDKAAEAVIIDTIRKSYPQHTIITEESGELEGTDQDVQWVIDPLDGTTNFIKRLPHFAVSIAVRIKGRTEVAVVYDPMRNELFTATRGQGAQLNGYRLRGSTARDLDGTILATGFPFKAKQYATTYINIVGKLFNECADFRRTGSAALDLAYVAAGRVDGFFEIGLRPWDFAAGELLVREAGGIVSDFTGGHNYMLTGNIVAGNPRVVKAMLANMRDELSDALKR [P0ADG4] | 5.94 ± 0.37 | 6.49 ± 1.6 | 5.2 ± 0.23 | – | 5.39 ± 0.47 | 3.01 ± 0.21 | 6.17 ± 0.55 | 12 ± 0.71 | 5.53 ± 0.19 | 10.2 ± 0.39 | 6.063 ± 0.06 | 14 ± 1
3 | MHSLQRKVLRTICPDQKGLIARITNICYKHELNIVQNNEFVDHRTGRFFMRTELEGIFNDSTLLADLDSALPEGSVRELNPAGRRRIVILVTKEAHCLGDLLMKANYGGLDVEIAAVIGNHDTLRSLVERFDIPFELVSHEGLTRNEHDQKMADAIDAYQPDYVVLAKYMRVLTPEFVARFPNKIINIHHSFLPAFIGARPYHQAYERGVKIIGATAHYVNDNLDEGPIIMQDVIHVDHTYTAEDMMRAGRDVEKNVLSRALYKVLAQRVFVYGNRTIIL | 5.61 ± 0.48 | 5.19 ± 0.2 | 4.71 ± 0.23 | 5.71 ± 1.4 | 4.94 ± 0.19 | 2.78 ± 0.4 | 6.27 ± 1.3 | 10.5 ± 0.78 | 4.8 ± 0.3 | 9.08 ± 0.9 | 5.77 ± 0.26 | 12.6 ± 0.46
4 | MHTSELLKHIYDINLSYLLLAQRLIVQDKASAMFRLGINEEMATTLAALTLPQMVKLAETNQLVCHFRFDSHQTITQLTQDSRVDDLQQIHTGIMLSTRLLNDVNQPEEALRKKRA [P0A8S9] | 6.51 ± 0.47 | – | – | – | – | 0.799 | – | – | – | – | – | –
5 | MHVFDNNGIELKAECSIGEEDGVYGLILESWGPGDRNKDYNIALDYIIERLVDSGVSQVVVYLASSSVRKHMHSLDERKIHPGEYFTLIGNSPRDIRLKMCGYQAYFSRTGRKEIPSGNRTKRILINVPGIYSDSFWASIIRGELSELSQPTDDESLLNMRVSKLIKKTLSQPEGSRKPVEVERLQKVYVRDPMVKAWILQQSKGICENCGKNAPFYLNDGNPYLEVHHVIPLSSGGADTTDNCVALCPNCHRELHYSKNAKELIEMLYVNINRLQK | 5.51 | – | 4.2 | 5.87 | 4.87 | – | – | – | 4.8 ± 0.71 | 8.5 ± 1.1 | – | 10.2
6 | MHVLNILWVVFGIGLMLVLNLKFKINSMVALLVAALSVGMLAGMDLMSLLHTMKAGFGNTLGELAIIVVFGAVIGKLMVDSGAAHQIAHTLLARLGLRYVQLSVIIIGLIFGLAMFYEVAFIMLAPLVIVIAAEAKIPFLKLAIPAVAAATTAHSLFPPQPGPVALVNAYGADMGMVYIYGVLVTIPSVICAGLILPKFLGNLERPTPSFLKADQPVDMNNLPSFGVSILVPLIPAIIMISTTIANIWLVKDTPAWEVVNFIGSSPIAMFIAMVVAFVLFGTARGHDMQWVMNAFESAVKSIAMVILIIGAGGVLKQTIIDTGIGDTIGMLMSHGNISPYIMAWLITVLIRLATGQGVVSAMTAAGIISAAILDPATGQLVGVNPALLVLATAAGSNTLTHINDASFWLFKGYFDLSVKDTLKTWGLLELVNSVVGLIIVLIISMVA [P0AC94] | – | – | – | – | – | 2.92 ± 1.2 | 6.04 ± 0.1 | 13.5 | – | – | – | –
7 | MIAELFTNNALNLVIIFGSCAALILMSFWFRRGNRKRKGFLFHAVQFLIYTIIISAVGSIINYVIENYKLKFITPGVIDFICTSLIAVILTIKLFLLINQFEKQQIKKGRDITSARIMSRIIKITIIVVLVLLYGEHFGMSLSGLLTFGGIGGLAVGMAGKDILSNFFSGIMLYFDRPFSIGDWIRSPDRNIEGTVAEIGWRITKITTFDNRPLYVPNSLFSSISVENPGRMTNRRITTTIGLRYEDAAKVGVIVEAVREMLKNHPAIDQRQTLLVYFNQFADSSLNIMVYCFTKTTVWAEWLAAQQDVYLKIIDIVQSHGADFAFPSQTLYMDNITPPEQGR [P0AEB5] | 6.12 ± 0.49 | 6.41 ± 0.17 | 6.48 ± 0.5 | 6.71 ± 0.27 | 6.07 ± 0.36 | 3.02 ± 0.1 | 6.34 ± 0.4 | 11.9 ± 0.12 | 6.02 ± 0.14 | 12.7 ± 1.4 | 5.86 ± 0.78 | –
8 | MIARWFWREWRSPSLLIVWLALSLAVACVLALGNISDRMEKGLSQQSREFMAGDRALRSSREVPQAWLEEAQKRGLKVGKQLTFATMTFAGDTPQLANVKAVDDIYPMYGDLQTNPPGLKPQAGSVLLAPRLMALLNLKTGDTIDVGDATLRIAGEVIQEPDSGFNPFQMAPRLMMNLADVDKTGAVQPGSRVTWRYKFGGNENQLDGYEKWLLPQLKPEQRWYGLEQDEGALGRSMERSQQFLLLSALLTLLLAVAAVAVAMNHYCRSRYDLVAILKTLGAGRAQLRKLIVGQWLMVLTLSAVTGGAIGLLFENVLMVLLKPVLPAALPPASLWPWLWALGTMTVISLLVGLRPYRLLLATQPLRVLRNDVVANVWPLKFYLPIVSVVVVLLLAGLMGGSMLLWAVLAGAVVLALLCGVLGWMLLNVLRRMTLKSLPLRLAVSRLLRQPWSTLSQLSAFSLSFMLLALLLVLRGDLLDRWQQQLPPESPNYFLINIATEQVAPLKAFLAEHQIVPESFYPVVRARLTAINDKPTEGNEDEALNRELNLTWQNTRPDHNPIVAGNWPPKADEVSMEEGLAKRLNVALGDTVTFMGDTQEFRAKVTSLRKVDWESLRPNFYFIFPEGALDGQPQSWLTSFRWENGNGMLTQLNRQFPTISLLDIGAILKQVGQVLEQVSRALEVMVVLVTACGMLLLLAQVQVGMRQRHQELVVWRTLGAGKKLLRTTLWCEFAMLGFVSGLVAAIGAETALAVLQAKVFDFPWEPDWRLWIVLPCSGALLLSLFGGWLGARLVKGKALFRQFAG | 6.27 ± 0.098 | – | 6.06 ± 0.42 | 6.45 ± 0.35 | 6.86 ± 0.47 | 3.48 ± 0.66 | 6.92 ± 1.4 | – | 6.21 ± 1.2 | 13.3 ± 1.4 | 5.85 ± 0.5 | 10.5 ± 0.91
